Test [1] relates to granules positive for TIA1 and phospho-tau (P-S396/404, PHF1). Kind of test: Tau kinase inhibitor study: TIA1+ SGs and PHF1+ tau granules. It is filed as cell-based, mouse. The settings on record: HT22 cells, TIA1 and WT tau, 24 hrs; for formation of granules positive for TIA1 and phospho-tau (SGs and tau granules): XXVI 20 μM, CDK2/5 inhibitor 5 μM, SB203580 20 μM, 39621 20 μM, PP2 20 nM.

For test [2], the target named is Nucleolysin TIA-1 (endogenous mouse TIA1) (mouse) (UniProt P52912). Put plainly: TIA1 IP-MS, WT1 cortex.
Chain of UniProt P52912 (P52912 whole entry): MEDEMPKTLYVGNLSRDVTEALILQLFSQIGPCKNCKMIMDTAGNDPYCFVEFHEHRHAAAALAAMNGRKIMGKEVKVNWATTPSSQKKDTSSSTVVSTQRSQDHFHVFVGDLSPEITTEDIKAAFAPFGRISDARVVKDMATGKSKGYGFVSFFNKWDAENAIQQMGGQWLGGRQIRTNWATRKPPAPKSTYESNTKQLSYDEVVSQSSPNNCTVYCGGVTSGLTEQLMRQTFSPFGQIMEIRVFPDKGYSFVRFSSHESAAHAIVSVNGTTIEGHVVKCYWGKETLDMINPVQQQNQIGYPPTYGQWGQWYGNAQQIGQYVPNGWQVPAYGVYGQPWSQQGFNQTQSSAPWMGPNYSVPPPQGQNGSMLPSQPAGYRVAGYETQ
The target is the same in test [3]. Put plainly: TIA1 IP-MS, WT2 cortex.
For test [4] the target is unchanged. Put plainly: TIA1 IP-MS, WT3 cortex.
For test [5] the target is unchanged. Put plainly: TIA1 IP-MS, tau KO 1 cortex.
The target is the same in test [6]. Put plainly: TIA1 IP-MS, tau KO 2 cortex.
Test [7] shares this target. Put plainly: TIA1 IP-MS, tau KO 3 cortex.

As to `CC(C)(C)n1nc(-c2ccc(Cl)cc2)c2c(N)ncnc21` [PP2], the “formation of granules positive for TIA1 and phospho-tau (SGs and tau granules)” value in test [1] is “inhibition of SGs and tau granules”.

Regarding `C[S+]([O-])c1ccc(-c2nc(-c3ccncc3)c(-c3ccc(F)cc3)[nH]2)cc1` (stereo not drawn) [SB203580], in test [1], the “SG inhibition, comparison among the kinase inhibitors” value is reported as “strongest SG inhibition”; the “formation of granules positive for TIA1 and phospho-tau (SGs and tau granules)” value is “Inhibition”.

For the molecule “Splicing factor U2AF 65 kDa subunit (from UniProt P26369 2-475)”, the total ion current (normalized to TIA1 = 1000) in test [2] was 0; in test [3], 162; in test [4] it was 0; in test [5], 0; in test [6], 107; in test [7] it was 0.

Turning to “Stress-70 protein, mitochondrial (from UniProt P38647 47-679)”, the total ion current (normalized to TIA1 = 1000) in test [2] came out at 0; in test [3], 173; in test [4] it was 77.5; in test [5] it was 0; in test [6], 101; in test [7], 0.

With “Succinyl-CoA ligase [ADP-forming] subunit beta, mitochondrial (from UniProt Q9Z2I9 54-463)”, the total ion current (normalized to TIA1 = 1000) came to 0 in test [2]; 61.7 in test [3]; 86.3 in test [4]; 0 in test [5]; 49 in test [6]; 0 in test [7].

As to “Succinyl-CoA ligase [ADP/GDP-forming] subunit alpha, mitochondrial (from UniProt Q9WUM5 35-346)”, the total ion current (normalized to TIA1 = 1000) in test [2] turned out to be 0; in test [3], 204; in test [4] it was 54.8; in test [5], 0; in test [6], 26.9; in test [7] it was 0.

As to “Synaptosomal-associated protein 25 (from UniProt P60879 1-206)”, the total ion current (normalized to TIA1 = 1000) in test [2] amounted to 0; in test [3] it was 165; in test [4], 0; in test [5], 0; in test [6] it was 138; in test [7] it was 0.

As to Syntaxin-1B (from UniProt P61264 1-288), the total ion current (normalized to TIA1 = 1000) was 0 in test [2]; 99.7 in test [3]; 0 in test [4]; 0 in test [5]; 26.9 in test [6]; 0 in test [7].

Take “Thy-1 membrane glycoprotein (from UniProt P01831 20-131)”: the total ion current (normalized to TIA1 = 1000) in test [2] stood at 0; in test [3], 75.2; in test [4] it was 57.7; in test [5], 0; in test [6], 0; in test [7], 0.

With “Transcriptional activator protein Pur-alpha (from UniProt P42669 2-321)”, the total ion current (normalized to TIA1 = 1000) in test [2] was 0; in test [3], 264; in test [4], 269; in test [5], 0; in test [6], 39.7; in test [7] it was 0.

Turning to “Transformer-2 protein homolog beta (from UniProt P62996 2-288)”, the total ion current (normalized to TIA1 = 1000) in test [2] was found to be 0; in test [3], 70.9; in test [4], 0; in test [5] it was 0; in test [6], 33.3; in test [7], 0.

Consider “Tripartite motif-containing protein 2 (from UniProt Q9ESN6 1-744)”, for which the total ion current (normalized to TIA1 = 1000) in test [2] was 0; in test [3], 106; in test [4], 0; in test [5], 0; in test [6], 0; in test [7] it was 0.

Turning to “Tubulin polymerization-promoting protein (from UniProt Q7TQD2 1-218)”, the total ion current (normalized to TIA1 = 1000) amounted to 0 in test [2]; 299 in test [3]; 220 in test [4]; 0 in test [5]; 40.4 in test [6]; 0 in test [7].

On to “U1 small nuclear ribonucleoprotein 70 kDa (from UniProt Q62376 2-448)”, for which the total ion current (normalized to TIA1 = 1000) in test [2] is 6.22; in test [3], 0; in test [4], 0; in test [5], 0; in test [6] it was 0; in test [7] it was 0.

Turning to “Ubiquitin thioesterase OTUB1 (from UniProt Q7TQI3 2-271)”, the total ion current (normalized to TIA1 = 1000) in test [2] came out at 0; in test [3] it was 80.5; in test [4], 45.6; in test [5], 0; in test [6] it was 16.9; in test [7], 0.

Turning to “V-type proton ATPase catalytic subunit A (from UniProt P50516 1-617)”, the total ion current (normalized to TIA1 = 1000) is 0 in test [2]; 319 in test [3]; 71.9 in test [4]; 0 in test [5]; 214 in test [6]; 0 in test [7].

As to “V-type proton ATPase subunit H (from UniProt Q8BVE3 1-483)”, the total ion current (normalized to TIA1 = 1000) is 0 in test [2]; 101 in test [3]; 57.6 in test [4]; 0 in test [5]; 30.3 in test [6]; 0 in test [7].

Regarding “Vesicular glutamate transporter 1 (from UniProt Q3TXX4 1-560)”, the total ion current (normalized to TIA1 = 1000) in test [2] turned out to be 0; in test [3] it was 141; in test [4], 0; in test [5], 130; in test [6] it was 64.5; in test [7], 0.

For the origin of these results see patent US20190142860A1, “NUCLEIC ACID BASED TIA-1 INHIBITORS” (Aquinnah Pharmaceuticals, Inc., priority 2015, published 2019).
